# Experimental data taken from the nanobody polyreactivity screen of Harvey et al. (2022).
# Assay: yeast display, Sf9 membrane polyspecificity reagent, FACS + sequencing; frameworks hold sequencing errors
# How it was run: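 In a synthetic yeast display library (Saccharomyces cerevisiae BJ5465), nanobody expression was induced with galactose for 36–48 hours. FACS gates were set low and high (top ~1%) using anti-HA fluorescence for expression and streptavidin fluorescence for binding of the Sf9 membrane reagent. Each polyreactivity label is drawn from the gate of origin.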
row,Sequence,polyreactivity (PSR sort gate)
1,QVQLVESGGGLVQAGGSLRLSCAASGSTFIFYAMGWYRQAPGKERELVAAISWSGGSTYYADSVKGRFTISRDNAKYTVYLQMNSLKPEDTAVYYCITLHRYSSERYDYWGQGTQVTVSS,high polyreactivity
2,QVQLVESGGGLVQAGGSLRLSCAASGSIYRYAMGWYRQAPGKEREFVAAITWNGGSTYYADSVKGRFTISRDNAKNTVYLQMNSLKPEDTAVYSCAAYEKRLGYDYWGQGTQVTVSS,high polyreactivity
3,QVQLVESGGGLVQAGGSLRLSCAASGRFLWYNAMGWYRQAPGTERELVAAITRGGSTHYADSVKGRFTLSRDNAKNTVYLQMNSLKPEDTAVYYCAVSYRSFPYYWERYYSWGQGTQVTVSS,high polyreactivity
4,QVQLVESGGGLVQAVGSLRLSCAAYGSTFYVNAMGWYRQAPGKEREFVAAITWNSGSTYYADSVKGRFTISRDNAKNTVYLQMNSLKPEDTAVYYCAAVLYVRVYGYDYWGQGTQVTVSS,low polyreactivity
5,QVQLVESGGGLVQAGGSLRLSCAASGFIFSLYAMGRYRQATGKERELVAVITWSDGRTYYADSVKGRFTISRDNAKNTVYLQMNSLKPEDTAVYYCAAADWITEYDYWGQGTQVTVSS,low polyreactivity
6,QVQLVESGGGLVQAGGSLRLSCAASGFTFARYAMGWYRQAPGKERELVAAIIWSGGRTYYADSVKGRFTISRDTAKNTVYLQMNSLKPEDTAVYYCNAWGLFYYSSGYDYWGQGTQVTVSS,high polyreactivity
7,QVQLVESGGGLVQAGGSLRLSCAASGRIFYPYAMGWSRQAPGKERELVASISGRGTTTYYADSVKGRFTISRDNAKNTVYLQMNSLKPEDTGVYYCNAYPPTQYGYYYWGQGTQVTVSS,high polyreactivity
8,QVQLVESGGGLVQAGGSLRLSCAASGITYDKYAMGWYRQAPGKERELVAAITKSSGSTYYADSVKGRFTISRDNAKNTVYFQMNSLKPEDTAVYYCAAGIVYGYYYWGQGTQVTVSS,high polyreactivity
9,QVQLVESGGGLVQAGGSLRLSCAASGRTFYNAMGWYRQAPGKERELVAAISASGARTYYADSVKGRFTISRDNAKNTVYLQMNSLKPEDTAVYYCATKSQRYARDYWGQGTQVTVSS,high polyreactivity
10,QVQLVESGGGLVQAGGSLRLSCAASGSIFYPYAMGWYRQAPGKERELVAAISSSGGSTYYADSVKGRFTISRDTAKNTVYLQMNSLKPEDTAVYYCAARGKKHAYDYWGQGTQVTVSS,low polyreactivity
11,QVQLVESGGGLVQAGGSLRLSCAASGRTFFSFNAMGWYRQAPGKERELVAAIDGDGGITYYADSVKGRFTISRDNAKNTVYLQMNSLKPEDTAVYYCAAETLFSYAGEDDYWGQGTQVTVSS,low polyreactivity
12,QVQLVESGGGLVQAGGSLRLSCAASGSIFKYYAMGWYRQAPGKERELVAAISSSGNTYYADSVKGRFTISRDNAKNTVYLQMNSLKPEDTAVYYCNAYRPGEMDYWGQGTQVTVSS,high polyreactivity
13,QVQLVESGGGLVQAGGSLRLSCAASGRIFNYNAMGWYRQAPGKERELVATITYIGTGTYYADSVKGRFTISRDNAKNTVYLQMNSQKPDDTAVYYCAASYRSRVWWRFDYWGQGSQVTVSS,high polyreactivity
14,QVQHVESGGGIVQAGGSLRLSCAASGLTFVYYAMGWYRQAPGTERELVAAISSGGRTYYADSVKGRFTISRDNAKKTVYLQMNSLKPDDTAVYYCAAYGGTHYTYRYDYWGQGTQVTVSS,high polyreactivity
15,QVQLVESGGGLVQAGGSLLLSCAASGRTLFVYDMGWYRQAPGKERELVAAITWGVGSTYYADSVKGRFTISRDNAKNTVYLQLNSLKPEDTAVYYCNAVAIRYYRWYYYWGQGTQVTVSS,high polyreactivity
16,QVQLVESGGGLVQAGGSLRLSCAASGRIFQRYAMGWYRQAPGKERELVAAISSRGGRTFYADSVKGRFTISRDNAKNTVYLQMNSLKPEDTAAYYCAATATVGSVTFDYWGQGTQVTVSS,high polyreactivity
17,QVQLVESGGGLVQAGGSLRLSCAASGSTFSWYTMGWYRQAPGKERELVAAITRDGSTYYADSVKGRFTISRDNAKNTVYLHMNSLKPEDTAVYYCAADLSYWRGGHSRNYWGQGTQVTVSS,low polyreactivity
18,QVQLVESGGGLVQAGGSLRLSCAASGSTFVYYAMGWYRQAPGKEREFVATIYRGDNTNYADSVKGRFTISRDNAKNTVYLQMNSLKPEDTAVYYCAADEPKWDLGGGTYLRDYWGLGTQVTVSS,low polyreactivity
19,QVQLVESGGGLVQAGGSLRLSCAASGITFYRYGMGWYRQAPGKARELVAAITYNGGGTYYADSVKGRFTISRDNAKNTVYLQMNSLKPEDTAVYYCNARYYRKYDYWGQGTQVTVSS,high polyreactivity
20,QVQLVESGGGLVQAGGSLSLRCAASGRTVGSYAMVWYRQAPGKERELVAVINGDGSTYYADSVKGRFTISRDNAKNTVYFQMNSLKPVDTAVYYCNNVSFYLGTRRVSLKHYYWGQGTQVTLSS,low polyreactivity
21,QVQLLESGGGLVQAGGSLRLSCAASGLIYVNNPMGWYRKATGKETELVATISSGVSTNYADSVKGRFTISRENAKNSVYLHMNSLKPEDTAVYYCNKGQTVSRGYRLYERYDYWGQGTQVTVSS,low polyreactivity
22,QVELVESGGGLVQAGGSLRLSCAASGSIFTVYAMGWYRQAPGKERELVAAISSSGGRTYYADSVKGRFTISRDNAKNTVYLQMNSLKPEDTAVYYCNTGPGQSFRYNYWGQGTQVTVSS,high polyreactivity

row,Sequence,polyreactivity (PSR sort gate)
1,QVQLVESGGGLVQAGGSLRLSCAASGRTFYHYAMGWYRQAPGKERELVAGITGRGRSTYYADSVKGRFTISRDNAKNTVYLQMNSLKPEDTAVYYCAAARLYSGAASDYGYWGQGTQVTVSS,high polyreactivity
2,QVQLVESGGGLFQAGGSLRLSCAASGRIFWNYAMGWYRQAPGKERELVASINWSGGSTYYADSVKGRFTISRDNAKNTVYLQMNSLKPEDTAVYYCNKDGRVYLDHDYWGQGTQVTVSS,low polyreactivity
3,QVHLVDSGGGLVQAGGILRLSCSDYGSTFALYAMGWYRQSPGKVSELVAPITTSGGNTYYADSVKGRFTISRDNAKNTVYLQMNSLKPEDTAVYYCAADPWWSYTSYLRYYNLEMNYWGQGTQVTVSS,high polyreactivity
4,QVQLVESGGGLVQAGGSLRLSCAASGFTFEDNTMGGYRQAPGKERELVAAITWGGVSTYYADSVKGRFTISRDNAKKTVYLQMNSLKPEDTAVYYCARDYDVYTVFLMDYWGQGTQVTVSS,low polyreactivity
5,QVQLVESGGGLVQAGGSLRLSCAASGSTIPYYAMGWYRQAPGKERELVATISSSGGSTYYADSVKGRFTISRDNAKNTVYLQMKSLKPEDTAVYYCAARYQTSGFRYRYGYWGQGTQVTVSS,high polyreactivity
6,QVWLQESGGGRVQACGSLRLSCAASGTIARDIFMGWYRQAPGKEREFVATIAQGGITNYADSVKGRFTISRDNAKNTVYLQMNSVKPGDTAVYYCAARDGNCYWFYYWGQGTQVTVSS,high polyreactivity
7,QVQLVESGGGLVQAGGSLRLSCAASGLILYYYTIGWYRQAPGKERELVAAINSGGNTYYADSVKGRFTISRDNAKNTVYLQMNSLKPEDTAVYYCNAYRVRYKRSYDYWGQGTQVTVSS,high polyreactivity
8,QVQLVESGGGLVQAGGSLRLSCAASGSIFKTNAMGWYRQAPGKERELVAGISNGGSTNYADSVKGRFTISRDNAKNTVYLQMNSLKPEDTAVYYCAAPYTSQTIPDYVRYFIEYDYWGQGTQVTVSS,low polyreactivity
9,QVQLVESGGGLVQAGGSLRLSCAASGFTFWRNAMGWYRQAPGKERELVAAISWRGGSTYYADSVKGRFTISRDNAKNTVYLQMNSLKPEDTAVYYCNALHWQSKELDYYWGQGTQVTVSS,high polyreactivity
10,QVQLVESGGGLVQAGGSLRLSCAASGSIFRAYAMGWYRQAPGKERELVATISWSGTSTSYADSVKGRFTISRDNAKNTVYLQMNSLKPEDTAVYYCAAGYASGPRPQTAYYYWGQGTQVTVSS,low polyreactivity
11,QVHLVESGGGLVQAGGILRLSCAASGFTFTSNAMGWYRQAPGKEREFVADISNIGGDTTYADSVKGRFTISRDNAKNTVYLQMNSLKPEDTAVYYCNADFAFIENDYWGQGTQVTVSS,low polyreactivity
12,QVHLVESGGGLVQAGGSLRLSCAASGSTFFIYTMGWYRQAPGKEREFVAAISWTGGRTYYADSVKGRFTISRDNAKNTVYLQMNSLKPEDTAVYYCAARYKYSSYDYWGEGTQVTVSS,high polyreactivity
13,QVQLVESGGGLVQAGGSDRLSCAASGRTFDRYAMGWYRQAPGKERELVAAISRGGSTNYADSVKGRFTISRDNAKNTVYLQMNSLKPEDTAVYYCAARVSFLHLRRAYDYWGQGSQVTVSS,high polyreactivity
14,QVQLVESGGGLVQAGGSLRLSCAASGRSFYYNAMGWYRQAPGKERELVAAIRSSGGTTYYADSVKGRFTISRDNAKNTVYLQMNSLKPEDTAVYYCAKDSNRYSYYSPYDSWGQGTQVTVSS,low polyreactivity
15,QVQLVESGGGLVQAGGRLRLSCAASGSIFVKYAMGCYRHAPGKERELVATIRRSGTSTYYADSVKGRFTISRDNAMNTVYLQMNSLKPEDPAVYYCAALRSLLYRTYGYWGQGTQVTVSS,low polyreactivity
16,QVQLVESGGGLFQAGGSLRLSCAASGRTFRTNAMGWYRQAPGKERELVAAITRSGGSTYADSVKGRFTISRDNAKNTVYLQMNSLKPEDTAVYYCATTRDWVYNYWGQGTQVTVSS,low polyreactivity
17,QVQLVESGGGLVQAGGSLRLSCAASGSTFKTYVMGWYRQAPGKERELVAGISDSGGTTYYADSVKGRFTISRDNAKNTVYLQMNSLKPEDTAVYFCNAAFGVYVATGDSFPWHKKFGYWGQGTQVTVSS,high polyreactivity
18,QVQLVESGGGLVQAGGSLRLSCAASGITFSVYTMGWYIQAPGKERELVAAIDSDGITNYADSVKGRFTISRDNEKNNVYLQMNSLKPEDTAVSYCAKQTGRADGVSGFDYWGQGTQVTVSS,low polyreactivity
19,QVQLVESGGGLVQAGGSLRLSCAASRSIFEANDMGWYRQAQGKERELVAAIDANTGSTYYADSVKGRFTISRDNAKNTVYLQMNRLKPEDTAVYYCNAQVYLHTAYDYWGQGTQVTVSS,low polyreactivity
20,QVQLVESGGGLVQAGGSLRLSCAASGSTLGLNAMGWYRHAPRKEREFVAAISQGGTRTYYADSVKGRLTNSRDNAKNCVYLQMNSLKPEDTAVYYCAALRHRTRAASGGDYWGQGTQVNVSS,high polyreactivity
21,QVQLEESGGGLVQAGGSLRLSCAASGSIFYKYAMGWYRQAPGKEREFVATIRYSGGSTYYADSVKGRFTISRDNAKNTVYLQMNILKPEDTAVFYCAADAYSYGYDSWGQGTQVTVSS,high polyreactivity
